B1: CCR4-associated factor 4 (Saccharomyces cerevisiae), P36130 (parent)
chain: MGSGDTRGESSLVAKPIEIILNKLPHAILAQQQFQKYITSPIYRYLSKLLLFREVAWPESTKDTQKGQVGIFSFQNNYADSATTFRILAHLDEQRYPLPNGAAEKNLPSLFEGFKATVSIIQQRLLLDNVDGATNSDKEKYVQLPDINTGFVNKTYSRIDLTHLLEDVETNVENLSINKTLEMDELTRLDSMINELESRKLKILERVKHIDSKSTNLENDVTLIKDRINFIEEYNLEADREQSLRKQMEEERSSEASSFTQNEEAISSLCDVESKDTRLKDFYKMPHEKSHDKNRQIISETYSRNTTAFRMTIPHGEHGNSITALDFDTPWGTLCSSSYQDRIVKVWDLNHGIQVGELPGHLATVNCMQIDKKNYNMLITGSKDATLKLWDLNLSREIYLDHSPLKEKTEEIVTPCIHNFELHKDEITALSFDSEALVSGSRDKKIFHWDLTTGKCIQQLDLIFTPTHSDIKMPARSLNNGACLLGTEAPMIGALQCYNSALATGTKDGIVRLWDLRVGKPVRLLEGHTDGITSLKFDSEKLVTGSMDNSVRIWDLRTSSILDVIAYDLPVSSLDFDGKLITVGANEGGVNVFNMERDEHWMTPEPPHSLDGDELSRRIAIVKYKDGFLINGHNDGDINVWTL
partner: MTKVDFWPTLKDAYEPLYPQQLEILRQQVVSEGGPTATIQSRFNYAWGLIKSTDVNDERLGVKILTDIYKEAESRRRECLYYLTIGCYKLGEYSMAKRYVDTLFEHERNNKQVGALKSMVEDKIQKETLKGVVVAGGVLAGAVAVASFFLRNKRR
B2: Mitochondrial fission 1 protein (Saccharomyces cerevisiae), P40515 (parent)
chain: B1 partner
partner: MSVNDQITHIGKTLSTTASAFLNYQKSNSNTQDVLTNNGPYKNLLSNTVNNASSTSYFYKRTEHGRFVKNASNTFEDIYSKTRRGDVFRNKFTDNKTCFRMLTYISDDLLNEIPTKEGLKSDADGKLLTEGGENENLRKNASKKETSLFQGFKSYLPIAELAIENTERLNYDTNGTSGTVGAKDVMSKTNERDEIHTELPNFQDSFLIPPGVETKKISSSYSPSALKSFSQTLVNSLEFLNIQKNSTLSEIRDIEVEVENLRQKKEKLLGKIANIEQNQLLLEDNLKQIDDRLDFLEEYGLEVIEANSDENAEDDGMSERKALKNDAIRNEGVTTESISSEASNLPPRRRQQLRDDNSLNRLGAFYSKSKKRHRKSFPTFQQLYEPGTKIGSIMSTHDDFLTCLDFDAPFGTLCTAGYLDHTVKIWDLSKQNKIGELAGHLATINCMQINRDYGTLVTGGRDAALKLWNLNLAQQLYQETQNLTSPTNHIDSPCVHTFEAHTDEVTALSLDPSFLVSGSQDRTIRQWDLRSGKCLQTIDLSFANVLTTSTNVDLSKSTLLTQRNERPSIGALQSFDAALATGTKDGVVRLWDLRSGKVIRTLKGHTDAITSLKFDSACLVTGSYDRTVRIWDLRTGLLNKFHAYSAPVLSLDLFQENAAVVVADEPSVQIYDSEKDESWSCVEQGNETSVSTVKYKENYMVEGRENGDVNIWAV
B3: Mitochondrial division protein 1 (Saccharomyces cerevisiae), P47025 (parent)
chain: B2 partner
partner: B1 partner

Variants of: B1
Conditions: with fis1_yeast FIS1, P40515

Row | Variant | effect of a mutation on the interaction
1 | L110A | disrupting interaction strength
2 | F111A | disrupting interaction strength
3 | L88A | disrupting interaction strength
4 | F114A | disrupting interaction strength
5 | F85A;R86A | disrupting interaction strength

Variants of: B2
Conditions: with mdv1_yeast MDV1, P47025

Row | Variant | effect of a mutation on the interaction
6 | MTKVDFWPTLKDAYEPLYPQQLEILRQQVVSEGGPTATIQSRAAYAWGLIKSTDVNDERLGVKILTDIYKEAESRRRECLYYLTIGCYKLGEYSMAKRYVDTLFEHERNNKQVGALKSMVEDKIQKETLKGVVVAGGVLAGAVAVASFFLRNKRR [F43A;N44A] | disrupting interaction
7 | MTKVDFWPTLKDAYEPLYPQQLEAARQQVVSEGGPTATIQSRFNYAWGLIKSTDVNDERLGVKILTDIYKEAESRRRECLYYLTIGCYKLGEYSMAKRYVDTLFEHERNNKQVGALKSMVEDKIQKETLKGVVVAGGVLAGAVAVASFFLRNKRR [I24A;L25A] | disrupting interaction
8 | MTKVDFWPTLKDAYEPLYPQQLEILRQQVVSEGGPTATIQSRFNYAAGLIKSTDVNDERLGVKILTDIYKEAESRRRECLYYLTIGCYKLGEYSMAKRYVDTLFEHERNNKQVGALKSMVEDKIQKETLKGVVVAGGVLAGAVAVASFFLRNKRR [W47A] | disrupting interaction

Variants of: B3
Conditions: with fis1_yeast FIS1, P40515

Row | Variant | effect of a mutation on the interaction
9 | F149A | disrupting interaction
10 | L148A | disrupting interaction
11 | F152A | disrupting interaction
12 | F99A;R100A | disrupting interaction
13 | I105A | disrupting interaction
